This is an account of results in patent publication US8685890 (Bicycle, dated 2014).

For assay [1], the target named is T1, Mdm2 (construct limits not stated) (UniProt Q00987 2-125, limits assumed). The assay can be described thus: fluorescence anisotropy (FIG. 3); PK15L1-PEP48L1 bicycle (FIG. 3). (In general: Fluorescence polarisation rises when a labelled molecule tumbles more slowly, as on binding a larger partner.)
Another assay concerns the target kallikrein (UniProt P03952 20-638, limits assumed). Put plainly: cell-based or functional assay.
Assay [2] addresses T2, MDM2 (res 2-125) (UniProt Q00987 2-125).
T2 construct: range 2-125
Put plainly: fluorescence anisotropy titration, MDM2 (res 2-125) titrated into the peptide, quadratic 1:1 fit with linear drift term; unit from the axis MDM2, uM.

In assay [3] the target is T2, MDM2 (res 2-125). The assay can be described thus: fluorescence anisotropy (Example 1, retold as a range); lower end of range retold from Example 1.
In assay [4] the target is T2, MDM2 (res 2-125). Put plainly: fluorescence anisotropy (Example 1, retold as a range); upper end of range retold from Example 1.
For assay [5], the target named is T2, MDM2 (res 2-125). The assay is described as described in Example 1 (method not retold).
Assay [6] addresses T2, MDM2 (res 2-125). Put plainly: fluorescence anisotropy titration, λex=280 nm; λex=280 nm.
Assay [7] has as its target T2, MDM2 (res 2-125). The assay can be described thus: fluorescence anisotropy titration, intrinsic Trp fluorescence, PBS 5 mM DTT, 23 C.
Assay [8] concerns the target T2, MDM2 (res 2-125). The assay can be described thus: fluorescence anisotropy titration, MDM2 (res 2-125) titrated into the peptide, quadratic 1:1 fit with linear drift term; unit from the axis uM Mdm2.
Assay [9] addresses T2, MDM2 (res 2-125). Put plainly: fluorescence anisotropy titration, λex=295 nm.
The target of assay [10] is T1, Mdm2 (construct limits not stated at …). Put plainly: method not given; affinity-matured Pep48T, estimated.
Assay [11] addresses T3, bovine serum albumin (bovine, UniProt P02769 25-607).
T3 construct: also called BSA
The assay can be described thus: fluorescence anisotropy, comparison of Kd.

The target in assay [12] is T3, bovine serum albumin. Put plainly: fluorescence anisotropy titration of BSA into peptide.
The target of assay [13] is T3, bovine serum albumin. Put plainly: fluorescence anisotropy titration of BSA into 0.4 µM peptide.
For assay [14], the target named is T3, bovine serum albumin. The assay can be described thus: fluorescence anisotropy titration of BSA into 200 nM peptide.
For assay [15], the target named is T1, Mdm2 (construct limits not stated at …). Put plainly: fluorescence anisotropy titration of 18.8 µM Mdm2 into 500 nM peptide; data could not be fitted.
In assay [16] the target is T3, bovine serum albumin. Put plainly: fluorescence anisotropy titration of BSA into 500 nM peptide.

Several values for one entry are separate records, joined by “and”; a condition that tells them apart may be missing. Equal values may be shown once. Starred links: 1 amine or outer side, 2 acyl side, 3 side chain; linkers in the order of their positions; H or OH if unused. Positions of bridges follow the written chain, without caps; N, C: chain ends. No end group written: not given here. TBMB = c1c(C[*:1])cc(C[*:3])cc1C[*:2]

T3 sequence (P02769 25-607 limits assumed): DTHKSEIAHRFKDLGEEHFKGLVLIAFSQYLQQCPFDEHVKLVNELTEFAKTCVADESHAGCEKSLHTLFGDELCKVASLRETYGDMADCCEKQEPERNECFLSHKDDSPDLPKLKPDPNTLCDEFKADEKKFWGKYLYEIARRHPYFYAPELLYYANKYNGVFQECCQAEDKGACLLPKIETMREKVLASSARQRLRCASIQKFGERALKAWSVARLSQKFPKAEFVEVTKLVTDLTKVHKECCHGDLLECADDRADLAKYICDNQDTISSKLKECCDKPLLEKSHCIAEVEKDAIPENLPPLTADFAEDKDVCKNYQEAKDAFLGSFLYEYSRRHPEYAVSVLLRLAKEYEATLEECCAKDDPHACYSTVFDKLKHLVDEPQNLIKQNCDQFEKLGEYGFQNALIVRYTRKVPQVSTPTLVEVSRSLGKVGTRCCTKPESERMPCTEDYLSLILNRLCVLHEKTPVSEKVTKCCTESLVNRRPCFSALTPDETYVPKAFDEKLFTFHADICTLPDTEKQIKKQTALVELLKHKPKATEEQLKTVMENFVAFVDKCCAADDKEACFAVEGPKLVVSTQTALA
T2 sequence (Q00987 2-125 limits assumed): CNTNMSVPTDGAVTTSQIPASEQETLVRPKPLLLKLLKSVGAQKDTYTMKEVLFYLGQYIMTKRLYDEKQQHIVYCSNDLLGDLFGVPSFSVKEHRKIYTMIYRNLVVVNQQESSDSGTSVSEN
T1 sequence (Q00987 2-125 limits assumed): as above
Sequence of kallikrein (P03952 20-638 limits assumed): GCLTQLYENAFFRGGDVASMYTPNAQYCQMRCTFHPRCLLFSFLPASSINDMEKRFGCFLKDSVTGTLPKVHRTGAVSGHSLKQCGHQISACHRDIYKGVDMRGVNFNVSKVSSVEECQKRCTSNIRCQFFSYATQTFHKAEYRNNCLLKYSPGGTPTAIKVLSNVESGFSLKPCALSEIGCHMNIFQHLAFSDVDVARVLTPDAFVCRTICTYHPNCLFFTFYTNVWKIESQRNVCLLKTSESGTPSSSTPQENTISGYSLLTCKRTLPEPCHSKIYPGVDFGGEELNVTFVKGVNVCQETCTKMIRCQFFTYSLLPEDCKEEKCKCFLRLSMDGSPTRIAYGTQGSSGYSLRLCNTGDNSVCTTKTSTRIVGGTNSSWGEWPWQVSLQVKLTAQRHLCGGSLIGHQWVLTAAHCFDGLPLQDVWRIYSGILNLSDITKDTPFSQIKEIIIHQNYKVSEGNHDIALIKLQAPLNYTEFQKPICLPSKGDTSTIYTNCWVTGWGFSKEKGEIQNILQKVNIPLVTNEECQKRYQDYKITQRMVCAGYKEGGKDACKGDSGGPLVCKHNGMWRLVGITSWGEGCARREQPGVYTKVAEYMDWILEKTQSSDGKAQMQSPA

B1: PK15L1-PEP48L1 bicyclic (peptide)
peptide: ACSDRFRNCVRFGWTCG
modifications: linker 2-9-16 via TBMB
notes: also called PK15L1-PEP48L1 bicyclic peptide; dual specific peptide comprising loops from PEP48 and PK15
With B1, the Kd – broadly, the constant that tells how readily two partners part at equilibrium – in [1] was 1550 nM; with MDM2 (res 2-125) [2] it was 1560 nM. The “IC50 for inhibition of kallikrein activity” value (from here on “IC50 for inhibition”) with kallikrein turned out to be 11000 nM.
As for H-ALCIFDLGFCSDRFRNCPADE-OH (linker 3-10-17 via TBMB) [X-CG4L1-PK15L1-Y bicyclic], the “IC50 for inhibition” value in the assay with kallikrein was determined as 15000 nM.

B2: PEP48 bicyclic peptide (synthetic peptide of phage clone 48 conjugated to TBMB) (peptide)
peptide: H-SCVRFGWTCDNSWHGCKG-OH
modifications: linker 2-9-16 via TBMB
notes: measured in PBS with 5 mM DTT; also called peptide 48; PEP48L1-PEP48L2 bicyclic peptide
As for B2, the Kd was no less than 500 nM with MDM2 (res 2-125) [3]; no more than 800 nM with MDM2 (res 2-125) [4]; roughly 660 nM with MDM2 (res 2-125) [5]; 760 nM with MDM2 (res 2-125) [6]; 250 to 750 nM with MDM2 (res 2-125) [7]; 760 nM and 568 nM with MDM2 (res 2-125) [8]. Further, binding with MDM2 (res 2-125) [9] was characterised by a dissociation constant (Kd) of 567 nM.
For the molecule SGCVRFGWTCPTVMCGG (linker 3-10-15 via TBMB; not fully specified (N-terminus, C-terminus)) [Pep48T (affinity-matured Pep48 derivative, TBMB conjugate)], the Kd in [10] was roughly 100 nM.

B3: CG4L1-PK15L1-PK15L2 tricyclic (peptide)
peptide: ALCIFDLGFCSDRFRNCPADE
HELM: PEPTIDE1{A.L.C.I.F.D.L.G.F.C.S.D.R.F.R.N.C.P.A.D.E}|CHEM1{[c1c(C[*:1])cc(C[*:3])cc1C[*:2]]}$PEPTIDE1,CHEM1,3:R3-1:R1|PEPTIDE1,CHEM1,10:R3-1:R2|PEPTIDE1,CHEM1,17:R3-1:R3|PEPTIDE1,PEPTIDE1,1:R1-21:R2$$$V2.0
SMILES: CC[C@H](C)[C@@H]1NC(=O)[C@@H]2CSCc3cc4cc(c3)CSC[C@H](NC(=O)[C@H](CC(N)=O)NC(=O)[C@H](CCCNC(=N)N)NC(=O)[C@H](Cc3ccccc3)NC(=O)[C@H](CCCNC(=N)N)NC(=O)[C@H](CC(=O)O)NC(=O)[C@H](CO)NC(=O)[C@H](CSC4)NC(=O)[C@H](Cc3ccccc3)NC(=O)CNC(=O)[C@H](CC(C)C)NC(=O)[C@H](CC(=O)O)NC(=O)[C@H](Cc3ccccc3)NC1=O)C(=O)N1CCC[C@H]1C(=O)N[C@@H](C)C(=O)N[C@@H](CC(=O)O)C(=O)N[C@@H](CCC(=O)O)C(=O)N[C@@H](C)C(=O)N[C@@H](CC(C)C)C(=O)N2
Consider B3, for which the “IC50 for inhibition” value in the assay with kallikrein worked out at 15000 nM.
On the same count and under the same terms, the result for ACSDRFRNCPADEALCG (linker 2-9-16 via TBMB) [PK15L1-PK15L2 bicyclic] reads 13 nM.

B4: PK15L1-CG4L1 bicyclic (peptide)
peptide: ACSDRFRNCIFDLGFCG
HELM: PEPTIDE1{A.C.S.D.R.F.R.N.C.I.F.D.L.G.F.C.G}|CHEM1{[c1c(C[*:1])cc(C[*:3])cc1C[*:2]]}$PEPTIDE1,CHEM1,2:R3-1:R1|PEPTIDE1,CHEM1,9:R3-1:R2|PEPTIDE1,CHEM1,16:R3-1:R3$$$V2.0
SMILES: CC[C@H](C)[C@@H]1NC(=O)[C@@H]2CSCc3cc(cc(c3)CSC[C@@H](C(=O)NCC(=O)O)NC(=O)[C@H](Cc3ccccc3)NC(=O)CNC(=O)[C@H](CC(C)C)NC(=O)[C@H](CC(=O)O)NC(=O)[C@H](Cc3ccccc3)NC1=O)CSC[C@H](NC(=O)[C@H](C)N)C(=O)N[C@@H](CO)C(=O)N[C@@H](CC(=O)O)C(=O)N[C@@H](CCCNC(=N)N)C(=O)N[C@@H](Cc1ccccc1)C(=O)N[C@@H](CCCNC(=N)N)C(=O)N[C@@H](CC(N)=O)C(=O)N2
Turning to B4, the “IC50 for inhibition” value with kallikrein was found to be 200 nM.

B5: Fmoc-FGSGD-NH2 (peptide)
peptide: FGSGD
HELM: PEPTIDE1{[O=C(OCC1c2ccccc2-c2ccccc21)[*:2]].F.G.S.G.D.[am]}$$$$V2.0
SMILES: NC(=O)[C@H](CC(=O)O)NC(=O)CNC(=O)[C@H](CO)NC(=O)CNC(=O)[C@H](Cc1ccccc1)NC(=O)OCC1c2ccccc2-c2ccccc21
With B5, in the assay with bovine serum albumin [11], the “fold tighter than the glycine variant (Fmoc-GGSGD-NH2)” value is 8 fold. For the same molecule, the Kd with bovine serum albumin [12] is 160 nM.

B6: Fmoc-WGSGD-NH2 (peptide)
peptide: WGSGD
HELM: PEPTIDE1{[O=C(OCC1c2ccccc2-c2ccccc21)[*:2]].W.G.S.G.D.[am]}$$$$V2.0
SMILES: NC(=O)[C@H](CC(=O)O)NC(=O)CNC(=O)[C@H](CO)NC(=O)CNC(=O)[C@H](Cc1c[nH]c2ccccc12)NC(=O)OCC1c2ccccc2-c2ccccc21
notes: also called Fmoc-Trp-GSGD
In the case of B6, the “fold tighter than Fmoc-FGSGD-NH2” value with bovine serum albumin [11] worked out at 3 fold. In the assay with bovine serum albumin [13], the Kd was roughly 60 nM.

B7: Fmoc-FGGGD-NH2 (peptide)
peptide: FGGGD
HELM: PEPTIDE1{[O=C(OCC1c2ccccc2-c2ccccc21)[*:2]].F.G.G.G.D.[am]}$$$$V2.0
SMILES: NC(=O)[C@H](CC(=O)O)NC(=O)CNC(=O)CNC(=O)CNC(=O)[C@H](Cc1ccccc1)NC(=O)OCC1c2ccccc2-c2ccccc21
For the molecule B7, the affinity with bovine serum albumin [12], expressed as Kd, was 200 nM.

B8: Fmoc-GGSGD-NH2 (peptide)
peptide: GGSGD
HELM: PEPTIDE1{[O=C(OCC1c2ccccc2-c2ccccc21)[*:2]].G.G.S.G.D.[am]}$$$$V2.0
SMILES: NC(=O)[C@H](CC(=O)O)NC(=O)CNC(=O)[C@H](CO)NC(=O)CNC(=O)CNC(=O)OCC1c2ccccc2-c2ccccc21
notes: also called the glycine variant
With B8, the Kd in the assay with bovine serum albumin [14] was 1300 nM.

B9: bicyclic Fmoc-WGGGA-PEP48L1-PK15L1 (peptide)
peptide: WGGGACVRFGWTCSDRFRNCG
HELM: PEPTIDE1{[O=C(OCC1c2ccccc2-c2ccccc21)[*:2]].W.G.G.G.A.C.V.R.F.G.W.T.C.S.D.R.F.R.N.C.G.[am]}|CHEM1{[c1c(C[*:1])cc(C[*:3])cc1C[*:2]]}$PEPTIDE1,CHEM1,7:R3-1:R1|PEPTIDE1,CHEM1,14:R3-1:R2|PEPTIDE1,CHEM1,21:R3-1:R3$$$V2.0
SMILES: CC(C)[C@@H]1NC(=O)[C@@H](NC(=O)[C@H](C)NC(=O)CNC(=O)CNC(=O)CNC(=O)[C@H](Cc2c[nH]c3ccccc23)NC(=O)OCC2c3ccccc3-c3ccccc32)CSCc2cc3cc(c2)CSC[C@H](NC(=O)[C@H]([C@@H](C)O)NC(=O)[C@H](Cc2c[nH]c4ccccc24)NC(=O)CNC(=O)[C@H](Cc2ccccc2)NC(=O)[C@H](CCCNC(=N)N)NC1=O)C(=O)N[C@@H](CO)C(=O)N[C@@H](CC(=O)O)C(=O)N[C@@H](CCCNC(=N)N)C(=O)N[C@@H](Cc1ccccc1)C(=O)N[C@@H](CCCNC(=N)N)C(=O)N[C@@H](CC(N)=O)C(=O)N[C@H](C(=O)NCC(N)=O)CSC3
notes: also called Fmoc PEP48L1-PK15L1 bicyclic; FmocPEP48L1-PK15L1
B9: the Kd was less than 1000 nM in assay [15] and 62 nM with bovine serum albumin [16]. Moreover, the “IC50 for inhibition” value with kallikrein was 17000 nM.

B10: PEP10 bicyclic peptide (synthetic peptide of phage clone 10 conjugated to TBMB) (peptide)
peptide: H-SCELWNPKCRLSPFECKG-OH
modifications: linker 2-9-16 via TBMB
notes: measured in PBS with 5 mM DTT; also called peptide 10
Take B10: the Kd in the assay with MDM2 (res 2-125) [7] was 250 to 750 nM; with MDM2 (res 2-125) [8] it was 268 nM; with MDM2 (res 2-125) [9] it was 267 nM.
